Test results taken from US20030147810A1.

Key:
[1] = target: secreted alkaline phosphatase with the wild type BACE cleavage site of amyloid precursor and the KDEL sequence (UniProt P05187); experiment: cell-based or functional assay
[2] = target: secreted alkaline phosphatase fused to the Swedish mutation of the BACE cleavage site in APP (…) and the KDEL sequence (UniProt P05187); experiment: cell-based or functional assay

For BACE (beta-site APP-cleaving enzyme), the alkaline phosphatase activity in the conditioned media of transfected neuro-2 cells (chemiluminescence, photons) [1] was 83700 photons, the alkaline phosphatase activity in the conditioned media of transfected neuro-2 cells, percent of control (no KDEL) [1] was 1.6 % of control and the alkaline phosphatase activity in the conditioned media of transfected neuro-2 cells (chemiluminescence, photons) [2] was 3.46e+06 photons. For the same substance, the efficiency of secretion: alkaline phosphatase activity in the conditioned media of transfected neuro-2 cells, percent of control (no KDEL) [2] was 66 % of control.
